Laboratory results published in US20250296994A1 (SYSMEX, published 2025).

Columns and labels:
[1] = biological target: T1, recombinant Crtac1B fragment #5 (human, UniProt Q9NQ79 28-606); assay: antigen immobilized ELISA; reference fCrtac1B (1-609)
T1 construct: also called fCrtac1B (1-608)
T1 sequence: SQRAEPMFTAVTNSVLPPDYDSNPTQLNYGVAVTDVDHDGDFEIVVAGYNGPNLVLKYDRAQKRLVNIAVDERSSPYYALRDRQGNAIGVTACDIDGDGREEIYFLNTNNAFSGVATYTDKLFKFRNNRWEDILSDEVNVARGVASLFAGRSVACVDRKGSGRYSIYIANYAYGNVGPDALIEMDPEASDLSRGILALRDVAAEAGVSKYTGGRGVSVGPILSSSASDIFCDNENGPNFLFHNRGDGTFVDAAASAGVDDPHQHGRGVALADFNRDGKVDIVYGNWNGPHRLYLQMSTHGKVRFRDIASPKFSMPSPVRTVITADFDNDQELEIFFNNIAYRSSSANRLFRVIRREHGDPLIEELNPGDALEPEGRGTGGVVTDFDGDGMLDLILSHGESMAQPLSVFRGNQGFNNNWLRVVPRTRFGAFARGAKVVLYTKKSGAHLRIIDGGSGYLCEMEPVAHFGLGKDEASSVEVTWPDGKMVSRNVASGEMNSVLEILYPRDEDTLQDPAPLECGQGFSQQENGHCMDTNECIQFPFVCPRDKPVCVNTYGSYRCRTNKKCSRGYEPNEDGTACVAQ
Description: The positive antigen and the negative control were diluted to a concentration of 20 μg/mL with dilution buffer I (20 mM potassium phosphate buffer (pH 7.4), 150 mM NaCl). A positive antigen (50 μL) and a negative control (50 μL) were added to each well of a 96 well plate, respectively. Then, the plate was incubated at 4° C. overnight, and the positive antigen and the negative control were immobilized in the well to obtain an antigen immobilized plate. Each well was washed twice with a washing solution (250 μL, 0.05% Tween (registered trademark) 20/20 mM potassium phosphate buffer (pH 7.4), 150 mM NaCl). To each well was added a blocking buffer (250 μL, 5% skim milk/20 mM potassium phosphate buffer (pH 7.4), 150 mM NaCl), and blocked at room temperature for 90 minutes. Culture supernatant (50 μL) of each hybridoma selected by primary screening was added to each well, and the cells were incubated at 37° C. for 1 hour. Each well was washed three times with a washing solution (250 μL). The HRP-labeled anti-mouse IgG antibody (MBL, product number 330) was diluted 1:1,000 with dilution buffer II (1% skim milk/20 mM potassium phosphate buffer (pH 7.4), 150 mM NaCl). […] The plate was set in a microplate reader (Thermo Fisher Scientific, Varioskan (registered trademark) Flash), and the color development intensity at 655 nm was measured for each well. […]

[2] = biological target: T2, recombinant Crtac1B fragment #7 (negative control) (human, UniProt Q9NQ79 28-606); assay: antigen immobilized ELISA, hybridoma culture supernatant, color development at 655 nm same as plate without antigen
T2 construct: also called fCrtac1B (1-606)
T2 sequence: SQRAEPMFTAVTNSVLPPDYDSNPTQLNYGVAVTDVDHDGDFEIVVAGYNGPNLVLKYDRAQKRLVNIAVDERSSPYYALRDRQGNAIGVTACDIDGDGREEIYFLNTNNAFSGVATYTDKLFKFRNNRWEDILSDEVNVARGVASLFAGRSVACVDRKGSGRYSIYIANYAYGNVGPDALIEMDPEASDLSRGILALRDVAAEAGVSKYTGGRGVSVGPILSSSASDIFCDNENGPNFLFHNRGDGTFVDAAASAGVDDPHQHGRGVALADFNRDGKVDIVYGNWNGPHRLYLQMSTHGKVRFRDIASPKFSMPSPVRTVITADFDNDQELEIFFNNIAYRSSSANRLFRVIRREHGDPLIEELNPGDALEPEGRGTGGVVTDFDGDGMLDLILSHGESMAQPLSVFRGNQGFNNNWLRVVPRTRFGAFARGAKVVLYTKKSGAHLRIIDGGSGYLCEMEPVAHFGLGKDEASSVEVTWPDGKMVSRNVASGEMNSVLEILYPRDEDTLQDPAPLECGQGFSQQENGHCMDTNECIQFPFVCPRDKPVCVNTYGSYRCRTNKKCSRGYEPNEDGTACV
Description: A positive antigen (50 μL) and a negative control (50 μL) were added to each well of a 96 well plate, respectively. Then, the plate was incubated at 4° C. overnight, and the positive antigen and the negative control were immobilized in the well to obtain an antigen immobilized plate. Each well was washed twice with a washing solution (250 μL, 0.05% Tween (registered trademark) 20/20 mM potassium phosphate buffer (pH 7.4), 150 mM NaCl). To each well was added a blocking buffer (250 μL, 5% skim milk/20 mM potassium phosphate buffer (pH 7.4), 150 mM NaCl), and blocked at room temperature for 90 minutes. Culture supernatant (50 μL) of each hybridoma selected by primary screening was added to each well, and the cells were incubated at 37° C. for 1 hour. Each well was washed three times with a washing solution (250 μL). The HRP-labeled anti-mouse IgG antibody (MBL, product number 330) was diluted 1:1,000 with dilution buffer II (1% skim milk/20 mM potassium phosphate buffer (pH 7.4), 150 mM NaCl). A solution (50 μL) of this labeled antibody was added to each well, and the well was incubated at 37° C. for 1 hour. Each well was washed five times with a washing solution (250 μL). Chemical chromogenic substrate solutions (Bio-Rad, TMB Peroxidase EIA Substrate Kit) were added to respective wells at 50 μL, and the plate was allowed to stand at room temperature under shading for 30 minutes. The plate was set in a microplate reader (Thermo Fisher Scientific, Varioskan (registered trademark) Flash), and the color development intensity at 655 nm was measured for each well.
Reactivity of the monoclonal antibody contained in the culture supernatant of the hybridomas of clones 1B4 and 15C2 to the antigen was confirmed by ELISA using the 7 recombinant Crtac1B fragments described above. A specific operation was the same as that of the antigen immobilized ELISA method of Example 1. For comparison, ELISA was performed in the same manner using a 96 well plate in which no antigen was immobilized.
In addition, as to these monoclonal antibodies, the color development intensity when the recombinant Crtac1B fragments of #6 and #7 were used was substantially the same as that when a plate without immobilizing the antigen was used.

binding relative to the binding to fCrtac1B (1-609) [1]: ~0.1 fold
binding result [2]: no binding
B1: 15C2 antibody (monoclonal antibody derived from the hybridoma of clone 15C2) (antibody, mouse IgG1, kappa, V domains shown)
VH: EVQLQQFGAELVKPGASVKISCKASGYTFTDYNMDWVKQSHGKSLEWIGDINPNYDSSSYNQKFKGKATLTVDKSSSTAYMELRSLTSEDTAVYYCTRSGGTYWGQGTLVTVSA
VL: DIQMNQSPSSLSASLGDTITITCHASQNINVWLSWYQQKPGNIPKLLIYKASNLHTGVPSRFSGSGSGTGFSLTISSLQPEDIATYYCQQAQSYPRTFGGGTKLEIKR
notes: Mouse IgG1; Used as hybridoma culture supernatant (ELISA) or purified from supernatant (IB, IP); also called anti-Crtac1B antibody; antibody of the present embodiment
